Measured values from patent publication US20220356497A1, “COMPOSITIONS AND METHODS FOR SYNTHESIS OF TERPENOIDS” (Zymergen Inc., priority 2019, published 2022).
“Also recorded” adds a separate entry of the source.

B1: GAR_NOR15: NOR candidate (SEQ ID NO: 1393) expressed in Saccharomyces cerevisiae from pESC-URA (protein)
chain: MADKEGEVVCVTGGSGFIGSWLVSLLLRRGYSVRATVKNLGDERETKHLEAIEGADSRLSLFQIDLLDYDSVATAVGDAAGVFHLASPCTIDQVNDPQRELLDPAIKGTLNVLKAAKNLGVRRVVVTSSISAMIASSNSLAETGEDCWIDEDYCRQNGLWYPVSKALAEKAAWKLAEENGLDIVVVNPGMVVGPILPPALNSSMQLMLHVLQGKDFFEGFFMGLVHVKDVALAQILLYENTSASGRHLCVESLSRYDDFAKQMEKLYPEYKLPRFSNNAQHGSLKSDAALKKLRDLGIEFAPLEQIVKDSIESLRSKGYIS
modifications: Nepeta cataria or Nepeta mussinii
B2: NcatNOR21: candidate nepetalactol oxidoreductase (NOR) from Nepeta cataria, protein SEQ ID NO: 566 (protein, listed as Nepeta cataria)
chain: MAKSVNAVGWAARDTSGLLSPLKFARPAAGDRDVQFKVLYCGICHSDLHSIKNEWGNTQYPIVPGHEIVGVVTAVGPKATKFKAGDKVGVGCLVNSCRHCDQCAADLENYCPQLVQTYNSVLADGSVTYGGYSDVMTADEDFVIRWPENFPMDKGAPLLCAGVTTYSPLRYYGLDKPGLHIGVVGLGGLGHVAVKFAKAFGMKVTVISTSAGKKKEAIETLGADAFLISRDASEMQAAAGTLDGMIDTVSAQHPLPPLLSLLKPHGKLILVGAPEKPFELPAFPLLMGRKTVAGSVIGGLKETQEMIDFAAKHNLLPEVEMIPMDYVNTAMERLAKADVKYRFVIDVGNTLTKAD
B3: NcatNOR15: candidate nepetalactol oxidoreductase (NOR) from Nepeta cataria, protein SEQ ID NO: 561 (protein, listed as Nepeta cataria)
chain: MAKTPETEHPVKAFGYAATDNSGTFSPFKFSRRATGERDVQFKVLYCGVCHSDLHMVKNEWGVTHYPIVPGHEIVGVATEVGSKVEKVKVGDKVGVGVIVGSCRQCDQCSNDLENYCSKQILTYGAPYLDGTITRGGYSDIMVADEHFIIRWPENFPLDAGAPLLCAGITTYSPLRYFGLDKPGLRVGVNGLGGLGHVAVKFAKAFGTKVTVISSSLRKKKEAVEKLGVDEFLVSTDPEQMQAAIGTLDGIIDTVSAEHSVVSLLSLLKPHGRLIVVGAPEKPHQLPAFPLITGRKSISGSAIGGMKETQEMIDFAAKHNILPDVEVIPIDYINTAMERLLKSDVKYRFVIDVEKSLKA
B4: NcatNOR34: candidate nepetalactol oxidoreductase (NOR) from Nepeta cataria, protein SEQ ID NO: 578 (protein, listed as Nepeta cataria)
chain: MAFCRSSLLLRKALGGSRRAAAAATCSSAYACGWQSERGRWYSGGEGTTISAPGYHVNTAPSHMTGAVFWDKDKPITYEEFEMPRPKANEVLIKTKACGACHSDLHVIKGDLKFPCPCILGHEITGEVVEHGPLTETKYIERYPVGSKVIGAFIMPCGSCFYCSRGEDDLCEPYFAYNRAKGTLYDGQTRLFLRGSGKPVHMWSMSGLAEYCVTPVNGLGALPDTLPYAESSVLGCAVFTAYGAIAHAAEVKPGNSVAVIGIGGVGSSCLQIAKAFGASEIIAVDVEDGKLETAKTFGATHIINSRKEDAIAKIKELTDGRGVDIAVEAIGGPKTFAQCVGSVRAGGKAVMIGLSPTGGKGEVEITQLVRRKVKVIGSYGGRAMTDLPKLVELAEQGTFNLEAAVTRRYKFEEVAQAYQDLQNKTIVGRGVIEIM

Assays:
nepetalactol [1] = test: Production of nepetalactone from fed nepetalactol in Saccharomyces cerevisiae strains expressing NOR candidates from pESC-URA; type: cell-based; conditions: 100 mg/L nepetalactol, 2% galactose, 24 hours
Description: The plasmids were individually transformed into chemically competent Saccharomyces cerevisiae cells as described in EXAMPLE 2. Transformants were selected on SD-URA agar plates. Three to four replicates were picked into SD-URA liquid medium and cultured at 30° C. for one to two days with shaking at 1000 rpm. Cultures were glycerol stocked at a final concentration of 16.6% glycerol and stored at −80° C. until later use.
10 μL of the glycerol stocked strains was inoculated into 300 μL of minimal media lacking uracil, and containing 4% glucose in 96-well plates to produce seed cultures. The plates were incubated at 30° C. at 1000 rpm for 1-2 days. 10 μL of the seed cultures was then inoculated into 300 μL of minimal media lacking uracil, and containing 2% galactose and 100 mg/L of nepetalactol. 30 μL of methyl oleate was next added to the wells. […]
Cell density was determined using a spectrophotometer by measuring the absorbance of each well at 600 nm. […] The plates were shaken for 25 sat 750 rpm immediately before being measured on a Tecan M1 000 spectrophotometer. […] The plates were centrifuged and the ethyl acetate layer was collected and analyzed by liquid chromatography coupled to mass spectrometry (LC-MS). Target analytes were quantified against authentic standards.

nepetalactol [2] = test: In vitro characterization of NOR candidates: conversion of nepetalactol to nepetalactone in clarified E. coli cell lysate (GC-MS); type: biochemical, Escherichia coli; conditions: NAD+ or NADP+, 30° C., 2 hours
Description: The plasmids were individually transformed into chemically competent BL21 (DE3) cells. pUC19 was also transformed into BL21 (DE3) to produce a strain that could serve as a negative control. Transformants were selected and grown overnight with shaking in LB medium containing kanamycin. Glycerol stocks were prepared by mixing overnight culture with 50% glycerol in a 1:1 ratio. Glycerol stocks were frozen at −80° C.
BL21 (DE3) strains were streaked out on LB plates containing kanamycin from glycerol stock and grown overnight at 37° C. A single colony was inoculated into 4 mL of LB medium containing kanamycin in 15 mL disposable culture tubes and incubated overnight at 30° C. with shaking at 250 rpm. 500 μL of the overnight culture was subcultured into 50 mL of LB medium containing kanamycin in a 250 mL baffled flask. The culture was grown at 37° C. and the optical density at 600 nm (OD600) was monitored. When OD600 reached between 0.6-1, the cultures were cooled on ice for 15 minutes. The cultures were then induced with 100 μM of isopropyl β-D-1-thiogalactopyranoside and incubated at 15° C. with shaking at 250 rpm for roughly 20 hours. Cultures were pelleted by centrifugation in 50 mL centrifuge tubes. The supernatant was decanted and the pellets were frozen at −20° C. for later processing.
Pellets were thawed on ice and resuspended with 3 mL of cold lysis buffer: 50 mM sodium phosphate, pH=7.4, 100 mM sodium chloride. All remaining steps were performed either on ice or at 4° C. The cell mixture was transferred to a 15 mL centrifuge tube and disrupted with three rounds of sonication using the Branson Sonitier 450 with a double-level microtip at 70% amplitude. A single round of sonication consisted of 6 cycles of 10 seconds with the sonicator on, and 10 seconds off Between each round, the cell mixture was allowed to sit on ice for a minute to cool. The lysed cell mixture was transferred to 1.7 mL centrifuge tubes and centrifuged at maximum speed in a microcentrifuge for 20 minutes. The supernatant (clarified cell lysate) was collected in a separate tube and used for in vitro characterization.
The in vitro reactions were setup as follows: 2 μL of 100 mM NAD+ or NADP+ and 10 μL of 100 uM nepetalactol was added to 188 μL of the clarified cell lysate. The reactions were incubated at 30° C. shaking at 200 rpm for 2 hours. As a positive control, 2 μL of 100 mM NAD+, 2 μL of 100 mM NADP+ and 10 μL of 100 μM nepetalactone was added to 186 μL of clarified lysate from a strain harboring pUC 19 and incubated for 1 hr. The reactions were extracted with one volume of ethyl acetate. The organic layer was withdrawn and analyzed with gas chromatography coupled to mass spectrometry (GC-MS). Authentic standards were run to confirm identities of analytes.

Molecule | nepetalactone produced (nepetalactol [1]) [mg/L] | conversion (oxidation) of nepetalactol to nepetalactone (nepetalactol [2]) | conversion (oxidation) of nepetalactol to nepetalactone (nepetalactol [2]; listed as NcatNORI5)
B1 | 93 | – | –
B2 | – | can convert nepetalactol to nepetalactone; also recorded: can oxidize nepetalactol to nepetalactone | –
B3 | – | can convert nepetalactol to nepetalactone | can oxidize nepetalactol to nepetalactone
B4 | – | can convert nepetalactol to nepetalactone; also recorded: can oxidize nepetalactol to nepetalactone | –
